How the values were obtained:
[1] = biological target: T1, recombinant sCD4 comprising the full-length extracellular domain of human CD4 (human, UniProt P01730 26-396); test: SPR (Biacore), antibody amine-coupled on the chip, human sCD4 as analyte, 25 C, 1:1 Langmuir fit
T1 construct: also called human soluble CD4; human sCD4 protein
Procedure: (§1) Binding affinity analyses were performed with a Biacore T3000 optical biosensor (GE Healthcare, Piscataway, N.J.). Immobilization of ibalizumab and all the glycan variants were performed following the standard amine coupling procedure. Briefly, carboxyl groups on the sensor chip surface were activated by injection of 35 μL of a solution containing 0.2 M N-(3-dimethylaminopropyl)-N-ethylcarbodiimide and 0.05 M Nhydroxysuccinimide at a flow rate of 5 μL/minute. Next, ibalizumab or its mutant variant, at a concentration of 2 μg/mL in 10 mM sodium-acetate buffer, pH 4.5, was allowed to flow over the chip surface at a rate of 10 μL/minute until the desired level of response units of reacted protein (150-200 RU) was achieved. After unreacted protein was washed out, excess active ester groups on the sensor surface were capped by the injection of 35 μL of 1 M ethanolamine, pH 8.0, at a flow rate of 5 μL/minute. As background to correct instrument and buffer artifacts, a reference was generated under the same conditions with omission of the protein ligand. Binding experiments were performed at 25° C. in HBS-EP buffer (0.01 M HEPES, 0.15M NaCl, 3 mM EDTA, 0.005% vol/vol surfactant P20 (GE Healthcare). Binding kinetics were measured by passing various concentrations of analyte (human sCD4 protein) over the chip surface at a flow rate of 30 μL/minute for 3 min. Dissociation of bound analytes was monitored while the surface was washed for 10 min. Remaining analytes were removed at a flow rate of 50 µL/minute with two 30-sec injections of 10 mM glycine-HCl, pH 2.0. For kinetics data analysis, the kinetic parameters were determined by collectively fitting the overlaid sensograms […] using the BIAevaluation 4.1 software to the 1:1 Langmuir binding model.
(§2) We next evaluated the kinetics of binding of these ibalizumab LMs to human soluble CD4 (sCD4) by surface plasmon resonance. In a Biacore assay using sCD4 as the analyte, WT ibalizumab and LMs bound sCD4 with similar binding kinetics.

[2] = biological target: T1, recombinant sCD4 comprising the …; test: SPR (Biacore), sCD4 as analyte; member of the six by its KD in Table 1
Procedure: as §1, §2

| Binder | Kd [1] [nM] | koff [1] [s⁻¹] | kon [1] [M⁻¹ s⁻¹] | fold of KD against wild-type ibalizumab [2] [fold] |
| --- | --- | --- | --- | --- |
| LM30E, ibalizumab light chain mutant with an N-linked glycosylation site at position 30E (antibody, human IgG1, kappa, V domains shown) VH: QVQLQQSGPEVVKPGASVKMSCKASGYTFTSYVIHWVRQKPGQGLDWIGYINPYNDGTDYDEKFKGKATLTSDTSTSTAYMELSSLRSEDTAVYYCAREKDNYATGAWFAYWGQGTLVTVSS VL: DIVMTQSPDSLAVSLGERVTMNCKSSQSLLYSTNNATYLAWYQQKPGQSPKLLIYWASTRESGVPDRFSGSGSGTDFTLTISSVQAEDVAVYYCQQYYSYRTFGGGTKLEIKR | 1.4 | 0.00015 | 110000 |  |
| LM52, glycan-modified anti-CD4 IgG1 antibody with an N-linked glycan at light chain position 52 (antibody, V domains shown) VH: QVQLQQSGPEVVKPGASVKMSCKASGYTFTSYVIHWVRQKPGQGLDWIGYINPYNDGTDYDEKFKGKATLTSDTSTSTAYMELSSLRSEDTAVYYCAREKDNYATGAWFAYWGQGTLVTVSS VL: DIVMTQSPDSLAVSLGERVTMNCKSSQSLLYSTNQKNYLAWYQQKPGQSPKLLIYWANSTESGVPDRFSGSGSGTDFTLTISSVQAEDVAVYYCQQYYSYRTFGGGTKLEIKR | 0.35 | 0.00016 | 460000 | ≤ 2 |
| LM53, ibalizumab light chain mutant with an N-linked glycosylation site at position 53 (antibody, human IgG1, kappa, V domains shown) VH: QVQLQQSGPEVVKPGASVKMSCKASGYTFTSYVIHWVRQKPGQGLDWIGYINPYNDGTDYDEKFKGKATLTSDTSTSTAYMELSSLRSEDTAVYYCAREKDNYATGAWFAYWGQGTLVTVSS VL: DIVMTQSPDSLAVSLGERVTMNCKSSQSLLYSTNQKNYLAWYQQKPGQSPKLLIYWASNATSGVPDRFSGSGSGTDFTLTISSVQAEDVAVYYCQQYYSYRTFGGGTKLEIKR | 0.45 | 0.00013 | 290000 | ≤ 2 |
| LM54, ibalizumab light chain mutant with an N-linked glycosylation site at position 54 (antibody, human IgG1, kappa, V domains shown) VH: QVQLQQSGPEVVKPGASVKMSCKASGYTFTSYVIHWVRQKPGQGLDWIGYINPYNDGTDYDEKFKGKATLTSDTSTSTAYMELSSLRSEDTAVYYCAREKDNYATGAWFAYWGQGTLVTVSS VL: DIVMTQSPDSLAVSLGERVTMNCKSSQSLLYSTNQKNYLAWYQQKPGQSPKLLIYWASTNATGVPDRFSGSGSGTDFTLTISSVQAEDVAVYYCQQYYSYRTFGGGTKLEIKR | 0.73 | 0.00027 | 370000 | ≤ 2 |
| LM60, ibalizumab light chain mutant with an N-linked glycosylation site at position 60 (antibody, human IgG1, kappa, V domains shown) VH: QVQLQQSGPEVVKPGASVKMSCKASGYTFTSYVIHWVRQKPGQGLDWIGYINPYNDGTDYDEKFKGKATLTSDTSTSTAYMELSSLRSEDTAVYYCAREKDNYATGAWFAYWGQGTLVTVSS VL: DIVMTQSPDSLAVSLGERVTMNCKSSQSLLYSTNQKNYLAWYQQKPGQSPKLLIYWASTRESGVPNATSGSGSGTDFTLTISSVQAEDVAVYYCQQYYSYRTFGGGTKLEIKR | 0.19 | 8.3e-05 | 440000 | ≤ 2 |
| LM65, ibalizumab light chain mutant with an N-linked glycosylation site at position 65 (antibody, human IgG1, kappa, V domains shown) VH: QVQLQQSGPEVVKPGASVKMSCKASGYTFTSYVIHWVRQKPGQGLDWIGYINPYNDGTDYDEKFKGKATLTSDTSTSTAYMELSSLRSEDTAVYYCAREKDNYATGAWFAYWGQGTLVTVSS VL: DIVMTQSPDSLAVSLGERVTMNCKSSQSLLYSTNQKNYLAWYQQKPGQSPKLLIYWASTRESGVPDRFSGNATGTDFTLTISSVQAEDVAVYYCQQYYSYRTFGGGTKLEIKR | 1.5 | 0.00049 | 330000 |  |
| LM67, ibalizumab light chain mutant with an N-linked glycosylation site at position 67 (antibody, human IgG1, kappa, V domains shown) VH: QVQLQQSGPEVVKPGASVKMSCKASGYTFTSYVIHWVRQKPGQGLDWIGYINPYNDGTDYDEKFKGKATLTSDTSTSTAYMELSSLRSEDTAVYYCAREKDNYATGAWFAYWGQGTLVTVSS VL: DIVMTQSPDSLAVSLGERVTMNCKSSQSLLYSTNQKNYLAWYQQKPGQSPKLLIYWASTRESGVPDRFSGSGNATDFTLTISSVQAEDVAVYYCQQYYSYRTFGGGTKLEIKR | 0.8 | 0.0002 | 250000 | ≤ 2 |
| LM76, ibalizumab light chain mutant with an N-linked glycosylation site at position 76 (antibody, human IgG1, kappa, V domains shown) VH: QVQLQQSGPEVVKPGASVKMSCKASGYTFTSYVIHWVRQKPGQGLDWIGYINPYNDGTDYDEKFKGKATLTSDTSTSTAYMELSSLRSEDTAVYYCAREKDNYATGAWFAYWGQGTLVTVSS VL: DIVMTQSPDSLAVSLGERVTMNCKSSQSLLYSTNQKNYLAWYQQKPGQSPKLLIYWASTRESGVPDRFSGSGSGTDFTLTINATQAEDVAVYYCQQYYSYRTFGGGTKLEIKR | 0.28 | 0.00014 | 500000 | ≤ 2 |
